Results taken from the DeepSol protein solubility set.

Test: soluble on expression in E. coli; label from the status in PepcDB or PDB records
For “MAGCSMMKVDRTFPDLKEIPVDLATRFRQMIEWLEIANSECRLTPYKKISHIYQIFHSQGVLECLFRRGEDDISFMIEASVYLLDHPLDGSRSSSPTICDFAGVLPTIFVTFRNKRLGTMVSGASVEFMEFAHHIQEHIHRTSFPEIRTAEIHKISLIDVRFGNMDRNAKNIIVKVEDNIPHFVPIDHEMCFINTGQNYNLCKPYWLSLEDSSIYEA”, the “soluble on expression in E. coli” value was “soluble”. In the case of “MNIATRPADYWQAIIFDFDGVIVESGDIKAQAFAELYRHHGETIAQAAVTYHRANGGMSRYLKFHYFQQNLLNYPPLTKEEEQELDRRFSELVMNAVISCQPVAGAEALLHRMVDQIPLFVASGTPESELRIIVEQRDLSRYFTEVRGSPRLKETLVADILSAYPLVPERVLMIGDALVDYESAHQNGIAFLGRVRPGDDNPFPESVEIVPDLCPVAI”, the “soluble on expression in E. coli” value was “soluble”. For “MAHHHHHHMVVVKGTEYYDGRTKNYVDYPITDVLQMVGRAGRPQFDTEGVAQVLCHEPKKGFYRKFLYDPFPVESTLHKQLHVHINAEIVAGTITTRQDAVDYLTWTYLFRRLVKNPSYYGVEDRSPKAVTIFISTLVANVLDELEACGCIASPGDDEEDDVSRKVTGMSAAGGTDDEKDPDALTCTVLGRLCSYYYLSHKTVRYFDAHIGADSSHVDVLKALCEAEEFNELPVRHNEDKLNLVLSQLLPFPINPNNAESPHVKAFLLFQAHFERASLPISDYYTDLKSALDNAVRVVQAMVDITSNNGHLYAALRCMSLLQCMVQGIWWHSSTLLQIPHVTAGMLPVIASRCGNLEHAAQVANSSITALQTLKAVLREDCGLSETQLREAMAAIQGFPLIDVRLCLSRTPDRTSNSGDAEHSDDGSKTAADVTYTLTVHLTRLSVHNKHVVAPHFTKPKDEQYWLVVGNEKTGELIALKRVNRLVNCVELTLSFEWDDEWAEFAEGGAVALSLYVVCDSYVGLDQQYNFSVPVPVDM”, the “soluble on expression in E. coli” value was “soluble”. With “MDLASNLGGKIDKSDVLTAVEKYEQYHVFHGGNEEERKANYTDMVNKYYDLATSFYEYGWGESFHFAQRWKGESLRESIKRHEHFLALQLGIQPGQKVLDVGCGIGGPLREIARFSNSVVTGLNNNEYQITRGKELNRLAGVDKTCNFVKADFMKMPFPENSFDAVYAIEATCHAPDAYGCYKEIYRVLKPGQCFAAYEWCMTDAFDPDNAEHQKIKGEIEIGDGLPDIRLTTKCLEALKQAGFEVIWEKDLAKDSPVPWYLPLDKNHFSLSSFRLTAVGRFITKNMVKILEYIRLAPQGSQRVSNFLEQAAEGLVDGGRREIFTPMYFFLARKPE” the “soluble on expression in E. coli” value was “soluble”. In the case of “MKAINIALDGPAAAGKSTIAKRVASELSMIYVDTGAMYRALTYKYLKLNKTEDFAKLVDQTTLDLTYKADKGQCVILDNEDVTDFLRNNDVTQHVSYVASKEPVRSFAVKKQKELAAEKGIVMDGRDIGTVVLPDADLKVYMIASVEERAERRYKDNQLRGIESNFEDLKRDIEARDQYDMNREISPLRKADDAVTLDTTGKSIEEVTDEILAMVSQIK”, the “soluble on expression in E. coli” value was “soluble”. In the case of “MKSFQLVATAASGLEAIVGKEVARLGYDPKVENGKVYFEGDLSAIARANLWLRVADRVKIVVGVFKATTFDELFEKTKALPWEDYLPLDAQFPVAGKSVKSTLYSVPDCQAIVKKAIVNRVSEKYRRSGRLMETGALFKLEVSILKDEVTLTIDTSGAGLHKRGYRLAQGSAPIKETMAAALVLLTSWHPDRPFYDPVCGSGTIPIEAALIGQNIAPGFNREFVSETWDWMPKQVWADARQEAEDLANYDQPLNIIGGDIDARLIEIAKQNAVEAGLGDLITFRQLQVADFQTEDEYGVVVANPPYGERLEDEEAVRQLYREMGIVYKRMPTWSVYVLTSYELFEEVYGKKATKKRKLYNGYLRTDLYQYWGPRKPRPKKED”, the “soluble on expression in E. coli” value was “soluble”. In the case of “MGAFFMSVVSAFAGAAEACRPTGALQNVEVARVVDGDTVRLRDGRSVRLIGINAPELAHNGRTTEPFAEAAKQRLQALVSASDGRLALQPGRQARDHYGRTLAHLFDASGANLEARLLGEGLGYLVAVAPNTELTACQQAAERAARSANLGVWKRSPVLSLDRLAQSGFAVVRGRVLEVERNRGGIWLEMDGPLVLRIEPKVLKAFDAKRVMQMAGRSLEVRGWVVDRSRRGAVPAGKARWQMSVTDPAMLEWLPLEHHHHHH”, the “soluble on expression in E. coli” value was “not soluble”. For “SADPGPDPESESESVFPREVGLFADSYSEKSQFCFCGHVLTITQNFGSRLGVAARVWDAALSLCNYFESQNVDFRGKKVIELGAGTGIVGILAALQGGDVTITDLPLALEQIQGNVQANVPAGGQAQVRALSWGIDHHVFPANYDLVLGADIVYLEPTFPLLLGTLQHLCRPHGTIYLASKMRKEHGTESFFQHLLPQHFQLELAQRDEDENVNIYRARHREPRPA”, the “soluble on expression in E. coli” value was “not soluble”. With “MEIDELPSGTQDQKPDIDMNEIVGTHDILMLCFDTLRYDVSVAEEASGGTPVLNSCGNGWEKRHAPGNFTYPSHFAIFAGFLPSPAEPHMLRNRKWLFFPFQAGTGRIPPEGSYAFKEATFVQSLAQVGYETICIGGVNFFSKRNDIGRVFPGYFNKSYWLPTFGCTDKNSAANQVDFAVDKLEKYPADRKVFMYINFSAIHYPNCHYVEGKKKDDKESHAAALRYVDSQLPRLFEAFRRRSDTLVIALSDHGTCYGEDGYEYHCISHEKVYTVPYKHFILRKLEHHHHHH” the “soluble on expression in E. coli” value was “soluble”. For “MKLGILHFTDSHIKSATDWILSEFSSLVASVKTIYEECDRIYIVFTGDVVYSGSEEEYILASKFLNSIRSLLKTLYKDKVYEQIIFTPGNHDCNFNMDRQARKML”, the “soluble on expression in E. coli” value was “not soluble”. For “MSLNHTAVNTAQAIILRDLVDALLFEDIAGIVSNSEITKENGQTLLIYERETQQIKIPVYFSALNMFRYESSQPITIEGRVSKQPLTAAEFWQTIANMNCDLSHEWEVARVEEGLTTAATQLAKQLSELDLASHPFVMSEQFASLKDRPFHPLAKEKRGLREADYQVYQAELNQSFPLMVAAVKKTHMIHGDTANIDELENLTVPIKEQATDMLNDQGLSIDDYVLFPVHPWQYQHILPNVFAKEISEKLVVLLPLKFGDYLSSSSMRSLIDIGAPYNHVKVPFAMQSLGALRLTPTRYMKNGEQAEQLLRQLIEKDEALAKYVMVCDETAWWSYMGQDNDIFKDQLGHLTVQLRKYPEVLAKNDTQQLVSMAALAANDRTLYQMICGKDNISKNDVMTLFEDIAQVFLKVTLSFMQYGALPELHGQNILLSFEDGRVQKCVLRDHDTVRIYKPWLTAHQLSLPKYVVREDTPNTLINEDLETFFAYFQTLAVSVNLYAIIDAIQDLFGVSEHELMSLLKQILKNEVATISWVTTDQLAVRHILFDKQTWPFKQILLPLLYQRDSGGGSMPSGLTTVPNPMVTYDEGHHHHHH”, the “soluble on expression in E. coli” value was “soluble”. In the case of “MGFQNLWFSHPRKFGPGSRSCRVCAGHHGLIRKYGLDLCRRCFREQARDIGFKKLD”, the “soluble on expression in E. coli” value was “not soluble”. With “MPPPTASTPDDSADPGPDFADVPPTDLVKVGFIFRPHGLDGELKIDPSATDDPARFEVLPTVFVGPHPRRVVRHDIASVRYQKTKRGITVILGLDGIVDRDDAEAVAKMDVFATEAALGLEDDELFADDLVGWTVVTEEGAVQGTVADFMEMPAQDLFVVRTPEDTEAMIPAIDDFIIEIDEEAERIVVRPIDGLMDALEHHHHHH” the “soluble on expression in E. coli” value was “not soluble”. In the case of “MMIVIKTAIPDVLILEPKVFGDERGFFFESYNQQTFEELIGRKVTFVQDNHSKSKKNVLRGLHFQRGENAQGKLVRCAVGEVFDVAVDIRKESPTFGQWVGVNLSAENKRQLWIPEGFAHGFVTLSEYAEFLYKATNYYSPSSEGSILWNDEAIGIEWPFSQLPELSAKDAAAPLLDQALLTE”, the “soluble on expression in E. coli” value was “soluble”. For “MSLTDIRDHRDMLTVHHLNNSRSQRVLWLLEELDTPYEIKRYQRQPDMMAPKELRAVHPLGKSPVITDNGNTIAESGAIIEYIVGTYGNGRLIPPPNTPERLRYTYWLHYAEGSAMPPLLLKLLFSMMPQRAPALVRPLVKMVASGALTGFVDPQLKLHMDYWESELGKAAYFAGDEFTAADIQMSFPLEAAAARGGLDQRYPKAQAWLERIHARPAYNRALEKGGPYEIGKAEGHHHHHH”, the “soluble on expression in E. coli” value was “soluble”. With “MSLAPAAVLELPSPTGLHPVGRRTLHLVDRHRPDPWVPAARGRELMVSVSYPARSSGARPAAYMTRSEAQRLLELKGLAGVVPAATVAGTRTHAQADAPPAPGRFPLVLLSPGFSVPRTTLTALAVDVAARGYVVAAVDHAYESVGTEFPGGRVPPCVACDRVGVDVDEATVVRGRAADLSFVIDELTGRRSTGALARLIDPGRIGVAGHSIGGAAALATMAADRRVRAGVNLDGGFFVPDAGHRIGGRPFMMVGAEAVHGPGNTAGDWAATYDRLHGWKRWLTVSGAGHFSFTDIPWLAEQLGLPDPQVPLPGERGWYITRDYVGAFFDLHLRGLPQPLLHGPTSSHPEVGFHRPEGHHHHHH” the “soluble on expression in E. coli” value was “soluble”. With “MFIVLNAPVRGRYCAPMTQFASPVLHSLLDTDAYKLHMQQAVFHHYYDVHVAAEFRCRGDDLLGIYADAIREQIQAMQHLRLQDDEYQWLSALPFFKADYLNWLREFRFNPEQVTVSNDNGKLDIRLSGPWREVILWEVPLLAVISEMVHRYRSPQADVAQALDTLESKLVDFSALTAGLDMSRFHLMDFGTRRRFSREVQETIVKRLQQESWFVGTSNYDLARRLSLTPMGTQAHEWFQAHQQISPDLANSQRAALAAWLEEYPDQLGIALTDCITMDAFLRDFGVEFASRYQGLRHDSGDPVEWGEKAIAHYEKLGIDPQSKTLVFSDNLDLRKAVELYRHFSSRVQLSFGIGTRLTCDIPQVKPLNIVIKLVECNGKPVAKLSDSPGKTICHDKAFVRALRKAFDLPHIKKASMAGDPLEHHHHHH” the “soluble on expression in E. coli” value was “not soluble”. With “MAHHHHHHMTTMARVDETLARFKGKSPRDSYKQVCGELDVHMQREIYAALPEKPMAWHHIYTLDLEKALLGTKGCMAMLPLITVSTSMRKLSLRSCGLSDEFVIQLCAVLQSHPSLRSVDISDNELVTVYSAPHIISVMRNNSNMVLFDVYNTHVGSNVGDIIAKLGQRNLDNVLHYYEDRYFRMKNLFNYMDADGTGWVVLKSLVLNCPYPVLQEQFVERIATKQPRKRSDNTISINTFLQLVYMNYKTEAEIGTYSNKTIDEPYVFMVANWKQLLYAVERYNARAAAMGDGQGPHPPVQLPDNFHRWRLRDYIITPDDADALVEGAVQLIEHSSAMAEGEPELNESGERAEPDAEVDSDKETAENAAEAAPLVIPITILLRAAKSVLVLPPSVAKPSYSFYTDRDAAYVPEILRNGSRLFSVSRLSCLFSGGASTTGDSASSPDVLQDSADRPHTFSLPASVVKMVVDFFNKEHKKLPTKKQSMIPDSPQTRRDKAMEKAAIPVPTFLSAEFVSDLERVCPRFLADYYSRHALLIEDGTITLQEMVNVLDEMYAQCRIDRIISLADIKAMPDPMKDKSLVSFVTAHFADRDEDISFLEPFNDVVAY” the “soluble on expression in E. coli” value was “soluble”. In the case of “MTSIGTGYDLSNSVFSPDGRNFQVEYAVKAVENGTTSIGIKCNDGVVFAVEKLITSKLLVPQKNVKIQVVDRHIGCVYSGLIPDGRHLVNRGREEAASFKKLYKTPIPIPAFADRLGQYVQAHTLYNSVRPFGVSTIFGGVDKNGAHLYMLEPSGSYWGYKGAATGKGRQSAKAELEKLVDHHPEGLSAREAVKQAAKIIYLAHEDNKEKDFELEISWCSLSETNGLHKFVKGDLLQEAIDFAQKEINGDDDEDEDDSDNVMSSDDENAPVATNANATTDQEGDIHLE”, the “soluble on expression in E. coli” value was “soluble”. For “GSMNDRDFMRYSRQILLDDIALDGQQKLLDSQVLIIGLGGLGTPAALYLAGAGVGTLVLADDDDVHLSNLQRQILFTTEDIDRPKSQVSQQRLTQLNPDIQLTALQQRLTGEALKDAVARADVVLDCTDNMATRQEINAACVALNTPLITASAVGFGGQLMVLTPPWEQGCYRCLWPDNQEPERNCRTAGVVGPVVGVMGTLQALEAIKLLSGIETPAGELRLFDGKSSQWRSLALRRASGCPVCGGSNADPV”, the “soluble on expression in E. coli” value was “soluble”. With “MDQPWNANIHYDALLDAMVPLGTQCVLDVGCGDGLLAARLARRIPYVTAVDIDAPVLRRAQTRFANAPIRWLHADIMTAELPNAGFDAVVSNAALHHIEDTRTALSRLGGLVTPGGTLAVVTFVTPSLRNGLWHLTSWVACGMANRVKGKWEHSAPIKWPPPQTLHELRSHVRALLPGACIRRLLYGRVLVTWRAPVLEHHHHHH” the “soluble on expression in E. coli” value was “not soluble”.
